The values below come from publication PMC13262181 (Structure (London, England : 1993), 2025).

A short description of data set [1]: Solubility of synthesized peptides. It counts as physicochemical. Conditions: when synthesized and experimentally tested.
Data set [2] has as its target LVEAVY tracer (synthetic construct). Conditions: cited from earlier work.
Another data set addresses T1, Cdc37 (Homo sapiens, UniProt Q16543).
T1 sequence (Q16543 1-378): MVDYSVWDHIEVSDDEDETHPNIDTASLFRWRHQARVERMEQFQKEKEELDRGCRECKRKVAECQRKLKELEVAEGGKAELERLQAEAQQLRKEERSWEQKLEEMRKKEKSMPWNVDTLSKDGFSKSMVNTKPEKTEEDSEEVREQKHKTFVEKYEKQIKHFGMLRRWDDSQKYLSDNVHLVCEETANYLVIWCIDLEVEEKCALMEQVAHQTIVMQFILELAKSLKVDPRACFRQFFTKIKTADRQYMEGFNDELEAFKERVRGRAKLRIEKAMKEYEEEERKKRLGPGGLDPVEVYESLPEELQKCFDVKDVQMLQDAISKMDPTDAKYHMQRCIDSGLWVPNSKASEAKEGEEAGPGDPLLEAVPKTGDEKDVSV
Description: 19F T2 filter NMR binding to Cdc37. Conditions: 19F-peptides 20 μM, increasing Cdc37 (0.5, 1, 2, 4 μM).

For data set [3], the target named is T2, Hsc70 SBD construct (residues 395-509) (human, UniProt P11142 395-509). Description: fluorescence polarisation.
T2 sequence (P11142 395-509): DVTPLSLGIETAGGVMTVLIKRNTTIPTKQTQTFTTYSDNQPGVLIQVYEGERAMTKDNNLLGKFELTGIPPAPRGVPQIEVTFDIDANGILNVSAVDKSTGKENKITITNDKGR
The target of data set [4] is T2, Hsc70 SBD construct (residues 395-509). Description: fluorescence polarisation. The source holds these as a separate data set.
The target is the same in data set [5]. Put plainly: fluorescence polarisation. This is another data set of the same source.

Ends that are not written are not given here. Ahx = NCCCCCC(=O)O

Turning to F-GVAEIGVGAYG [Cdk4-3], in data set [1], the solubility entry is on record as “limited solubility”.

On to Hsc70 SBD (from UniProt P11142), for which, in data set [2], the Kd was 100 nM.

Regarding PGQLMAISVGPTTLFV [Cdk4-2-scr], the “binding to Cdc37, 19F NMR titration” value on Cdc37 is on record as “no interaction was observed”.

Regarding FATSRTDREGPN [Cdk4-1], the solubility result in data set [1] is reported as “limited solubility”.

B1: Ac-… with the Leu residue mutated to alanine (peptide)
peptide: Ac-TGGFQMAAT
On to B1, for which the binding result in data set [3] is “binds”.

B2: Ac-… with the Met residue mutated to alanine (peptide)
peptide: Ac-TGGFQAALT
Take B2: the binding result in data set [3] was “binds”.

B3: FAM-Ahx-LPISTGGFQMALTPVV-OH (peptide)
peptide: {FAM-Ahx}-LPISTGGFQMALTPVV-OH
In the case of B3, the Kd in data set [4] was 29 nM.

B4: unlabeled Cdk4-4 (peptide)
peptide: Ac-GGFQMALTPVV-OH
For B4, the Ki in data set [5] is over 100 µM.
